Test results taken from publication PMC2931317.

Target: T1, DIP1-c (Disconnected Interacting Protein 1, longest isoform) (Drosophila melanogaster, UniProt C6TP62 1-410)
T1 sequence: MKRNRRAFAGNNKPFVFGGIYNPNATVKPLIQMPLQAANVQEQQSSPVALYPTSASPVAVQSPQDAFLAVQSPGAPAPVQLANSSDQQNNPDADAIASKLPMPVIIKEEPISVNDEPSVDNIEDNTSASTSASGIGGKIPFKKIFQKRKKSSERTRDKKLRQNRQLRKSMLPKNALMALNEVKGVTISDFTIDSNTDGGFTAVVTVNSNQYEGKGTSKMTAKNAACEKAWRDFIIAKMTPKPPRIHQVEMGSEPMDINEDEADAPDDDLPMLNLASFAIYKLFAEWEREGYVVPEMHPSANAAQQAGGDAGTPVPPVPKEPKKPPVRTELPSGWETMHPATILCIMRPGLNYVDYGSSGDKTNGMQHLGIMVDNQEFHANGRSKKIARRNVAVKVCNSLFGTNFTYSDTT
Assay: EMSA

B1: dsDNA40 (dsDNA)
DNA 1: CCGGGCTGCACATGGTTAATGGCCAGTCCACGCGTAGATC
DNA 2: GATCTACGCGTGGACTGGCCATTAACCATGTGCAGCCCGG
Kd: 26 ± 8 nM
